Reference: US6465618B1, “Mitogen activated protein kinase (MAPK) kinase” (Asahi Kasei Kabushikiki Kaisha, priority 1997, dated 2002)
Positions count from the first letter of the chain named.

How the values were obtained:
SAPK = molecular target: T1, SAPK (Mus musculus, UniProt Q9WTU6); assay: Activation of MAP kinase by recombinant MAPK kinase in vitro, substrate phosphorylation by autoradiography; assay type: biochemical; conditions: 0.1 μg MAPK kinase, 0.5 μg His-SAPK, 30° C. 30 minutes; substrate GST-cJun (1-79)
T1 construct: His (N); made in house; host or cells: E. coli
Description: (§1) 0.1 μg of a MAPK kinase (His-MKK7, GST-SEK1 and His-MKK6 were separately used) and 0.5 μg of a MAP kinase (His-MAPK, His-SAPK, His-p38 and His-SAPK3 were separately used), both prepared in item (1) above, were incubated with 10 μl of a solution containing 100 μM ATP, 20 mM MgCl2, 2 mM EGTA and 20 mM Tris-HCl (pH 7.5) at 30° C. for 30 minutes, to thereby activate the MAP kinase. Subsequently, 5 μl of a solution containing a substrate for the MAP kinase and 1 μCi of [γ-^32P] ATP (manufactured and sold by Amersham International, England) was added to the mixture, and further incubated at 20° C. for 20 minutes. As a substrate for the MAP kinase, 3 μg of myelin basic protein (MBP) was used for MAPK and SAPK3, 3 μg of GST-cJun (1-79) was used for SAPK, and 3 μg of ATF-2 was used for p38. The MBP used as the substrate was obtained by purifying Brain Acetone Powder (manufactured and sold by Sigma, USA), and ATF-2 was a kind gift of Dr. Suzanne J. Baker and Dr. Tom Curran (St. Jude Children's Research Hospital). After incubation, a sample was obtained from each incubated mixture and resolved on SDS-polyacrylamide gel electrophoresis. Then, the radioactivity of each of MBP, c-Jun and ATF-2 was detected by autoradiography.

SAPK3 = molecular target: T2, SAPK3 (Mus musculus, UniProt O08911); assay: as above; assay type: biochemical; conditions: 0.1 μg MAPK kinase, 0.5 μg His-SAPK3, 30° C. 30 minutes
T2 construct: His (N); made in house; host or cells: E. coli
T2 sequence (O08911 1-367): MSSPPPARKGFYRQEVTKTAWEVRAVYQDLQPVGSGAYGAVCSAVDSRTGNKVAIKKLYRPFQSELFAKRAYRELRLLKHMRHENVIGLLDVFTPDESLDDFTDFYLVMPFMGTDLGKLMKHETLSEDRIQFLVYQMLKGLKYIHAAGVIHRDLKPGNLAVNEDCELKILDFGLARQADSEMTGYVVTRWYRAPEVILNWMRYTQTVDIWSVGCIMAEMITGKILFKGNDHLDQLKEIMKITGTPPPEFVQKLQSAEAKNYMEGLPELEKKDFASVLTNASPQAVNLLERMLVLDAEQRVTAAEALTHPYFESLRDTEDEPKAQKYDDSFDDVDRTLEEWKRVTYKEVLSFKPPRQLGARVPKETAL
Description: as §1

p38 = molecular target: T3, p38 (Mus musculus, UniProt P47811); assay: as above; assay type: biochemical; conditions: 0.1 μg MAPK kinase, 0.5 μg His-p38, 30° C. 30 minutes; substrate ATF-2
T3 construct: His (N); made in house; host or cells: E. coli
Description: as §1

JNK1 = molecular target: T4, JNK1 (Homo sapiens, UniProt P45983); assay: Activity of activated MKK7 on JNK1, dot hybridization with anti-activated JNK antibody; assay type: biochemical; conditions: 0.1 μM MKK7, 0.2 μM JNK1, 0.1 mM ATP, 30° C. 2 hours
T4 construct: GST (N); made in house; host or cells: E. coli (GST-MKK7: E. coli DH5α co-transformed with a MEKK1 vector)
Description: In order to screen an inhibitor of MKK7, a completely activated MKK7 was prepared as follows. Illustratively stated, as an activation factor for MKK7, MEKK1 which is suspected to exist in the upstream of MKK7 and activate MKK7, was used. A commercially available MEKK1 gene (manufactured and sold by Stratagene Cloning Systems, USA) was inserted into an E. coli expression vector in which the origin of replication (ori) is p15A, to thereby prepare recombinant MEKK1 vector. The whole DNA of human MKK7 was inserted into vector pGEX-4T1 (manufactured and sold by Pharmacia Biotech AB, Sweden), to thereby prepare recombinant GST-MKK7 vector. Two recombinant expression vectors prepared above were co-transformed into E. coli DH5α to thereby obtain an activated GST-MKK7, and the activated GST-MKK7 was purified from E. coli using Glutathione-Sepharose 4B column (manufactured and sold by Pharmacia Biotech AB, Sweden).
A gene encoding human JNK1 was inserted into vector pGEX-4T1, thereby preparing recombinant GST-JNK1 vector, and the prepared recombinant vector was transformed into and expressed in E. coli. GST-JNK1 was purified from the transformants using Glutathione-Sepharose 4B column (manufactured and sold by Pharmacia Biotech AB, Sweden). […]
Using the activated MKK7 and JNK1 obtained above, the activity of MKK7 was determined in the following manner. […]

[1] = Optimum pH and heat deactivation of MKK7; assay type: physicochemical
Description: In addition to MKK7, MKK6 and SEK1 were used as the MAPK kinase, and MAPK, SAPK, p38 and SAPK3 were used as the MAP kinase. A MAPK kinase gene and a MAP kinase gene were cotransfected to a cell in different combinations, and the activity of the MAP kinase in vivo was determined by measuring the amount of a substrate (for the transfected MAP kinase) phosphorylated by the cotransfected cells. […] From this experiment, it has become apparent that the optimum pH for MKK7 is in the range of from pH 7 to 8, and MKK7 is deactivated at 70° C. or higher.

SAPK/JNK = assay: Inhibition of TNF-α-induced SAPK activation by the dominant negative form of MKK7 in KB cells; conditions: KB cells cotransfected with pSRα-HA-SAPKα and pSRα-MKK7KL; TNF-α 100 ng/ml, 15 minutes; sorbitol- and anisomycin-induced activation not suppressed
Description: KB cells were cotransfected with the vector pSRα-HA-SAPKα (0.5 μg) and either the vector pSRα or the vector pSRα-MKK7KL (1.5 μg) using Lipofectamine (manufactured and sold under the brand of GIBCO BRL, USA). Twenty-four hours after the transfection, TNF-α (100 ng/ml), sorbitol (0.5 M) and anisomycin (100 μg/ml) were individually used to stimulate the transfected cells for 15 minutes. Next, the cell extracts of the stimulated cells were individually prepared as follows. The cells were suspended in 0.7 M NaCl solution and washed once with ice-cold HEPES-buffered saline. Subsequently, the washed cells were homogenized in a buffer containing 20 mM Tris-HCl (pH 7.5), 2 mM EGTA, 25 mM β-glycerophosphate, 2 mM DTT, 1 mM vanadate, 1 mM PMSF and 1% aprotinin, wherein the buffer was used in an amount of 300 μl relative to cells obtained per plate (diameter: 100 mm). The resultant cell homogenate was centrifuged at 1000×g for 3 minutes, followed by a further centrifugation at 400,000×g for 20 minutes, thereby obtaining a supernatant. The obtained supernatant was used as the cell extract.
Each of the cell extracts was individually immunoprecipitated with anti-HA antibody (anti-hemagglutinin antibody) (12CA5), and the kinase activity of HA-SAPK in the immunoprecipitate was determined.

T3 sequence (P47811 whole entry): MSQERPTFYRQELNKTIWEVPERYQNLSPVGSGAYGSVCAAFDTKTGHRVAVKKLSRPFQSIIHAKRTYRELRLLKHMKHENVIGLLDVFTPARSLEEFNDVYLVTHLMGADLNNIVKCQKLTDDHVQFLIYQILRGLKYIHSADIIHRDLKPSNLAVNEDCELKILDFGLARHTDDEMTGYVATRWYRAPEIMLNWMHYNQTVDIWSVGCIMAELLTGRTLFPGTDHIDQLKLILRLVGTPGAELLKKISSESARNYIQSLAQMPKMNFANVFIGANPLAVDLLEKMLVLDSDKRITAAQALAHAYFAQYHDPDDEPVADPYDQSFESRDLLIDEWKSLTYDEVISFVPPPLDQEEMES
T4 sequence (P45983 whole entry): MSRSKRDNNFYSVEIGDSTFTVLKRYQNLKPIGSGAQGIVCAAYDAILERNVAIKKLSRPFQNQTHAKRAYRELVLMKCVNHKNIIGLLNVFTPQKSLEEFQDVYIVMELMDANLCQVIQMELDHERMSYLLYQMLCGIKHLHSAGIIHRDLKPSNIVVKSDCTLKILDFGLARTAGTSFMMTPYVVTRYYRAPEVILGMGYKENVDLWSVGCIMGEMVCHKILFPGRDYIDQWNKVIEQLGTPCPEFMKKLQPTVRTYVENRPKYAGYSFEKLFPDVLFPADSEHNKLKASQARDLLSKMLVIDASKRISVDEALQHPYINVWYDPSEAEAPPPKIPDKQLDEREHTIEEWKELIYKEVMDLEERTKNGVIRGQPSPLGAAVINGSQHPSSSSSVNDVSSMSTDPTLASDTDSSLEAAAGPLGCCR

B1: mouse SEK1: known MAPK kinase, mouse SEK1 expressed as GST-SEK1 (protein)
chain: MAAPSPSGGGGSGGGGGTPGPIGPPASGHPAVSSMQGKRKALKLNFANPPVKSTARFTLNPNTTGVQNPHIERLRTHSIESSGKLKISPEQHWDFTAEDLKDLGEIGRGAYGSVNKMVHKPSGQIMAVKRIRSTVDEKEQKQLLMDLDVVMRSSDCPYIVQFYGALFREGDCWICMELMSTSFDKFYKYVYSVLDDVIPEEILGKITLATVKALNHLKENLKIIHRDIKPSNILLDRSGNIKLCDFGISGQLVDSIAKTRDAGCRPYMAPERIDPSASRQGYDVRSDVWSLGITLYELATGRFPYPKWNSVFDQLTQVVKGDPPQLSNSEEREFSPSFINFVNLCLTKDESKRPKYKELLKHPFILMYEERTVEVACYVCKILDQMPATPSSPMYVD
modifications: left off: a dimerising Fc or GST
activation of SAPK (phosphorylation of c-Jun) (SAPK): activated
activation of SAPK3 (phosphorylation of MBP) (SAPK3): activated
activation of p38 (phosphorylation of ATF-2) (p38): activated

B2: MKK6: known MAPK kinase, human MKK6 expressed as His-MKK6 (protein)
chain: MSQSKGKKRNPGLKIPKEAFEQPQTSSTPPRDLDSKACISIGNQNFEVKADDLEPIMELGRGAYGVVEKMRHVPSGQIMAVKRIRATVNSQEQKRLLMDLDISMRTVDCPFTVTFYGALFREGDVWICMELMDTSLDKFYKQVIDKGQTIPEDILGKIAVSIVKALEHLHSKLSVIHRDVKPSNVLINALGQVKMCDFGISGYLVDSVAKTIDAGCKPYMAPERINPELNQKGYSVKSDIWSLGITMIELAILRFPYDSWGTPFQQLKQVVEEPSPQLPADKFSAEFVDFTSQCLKKNSKERPTYPELMQHPFFTLHESKGTDVASFVKLILGD
modifications: left off: small tags and cut ends
activation of SAPK (phosphorylation of c-Jun) (SAPK): did not activate
activation of SAPK3 (phosphorylation of MBP) (SAPK3): activated
activation of p38 (phosphorylation of ATF-2) (p38): activated

B3: activated MKK7: human MKK7 (SEQ ID NO: 2) as GST fusion, activated by co-expression with MEKK1 in E. coli (protein)
chain: AASSLEQKLSRLEAKLKQENREARRRIDLNLDISPQRPRPIIVITLSPAPAPSQRAALQLPLANDGGSRSPSSESSPQHPTPPARPRHMLGLPSTLFTPRSMESIEIDQKLQEIMKQTGYLTIGGQRYQAEINDLENLGEMGSGTCGQVWKMRFRKTGHVIAVKQMRRSGNKEENKRILMDLDVVLKSHDCPYIVQCFGTFITNTDVFIAMELMGTCAEKLKKRMQGPIPERILGKMTVAIVKALYYLKEKHGVIHRDVKPSNILLDERGQIKLCDFGISGRLVDSKAKTRSAGCAAYMAPERIDPPDPTKPDYDIRADVWSLGISLVELATGQFPYKNCKTDFEVLTKVLQEEPPLLPGHMGFSGDFQSFVKDCLTKDHRKRPKYNKLLEHSFIKRYETLEVDVASWFKDVMAKTESPRTSGVLSQPHLPFFR
modifications: left off: a dimerising Fc or GST
activity of MKK7 (presence of activated JNK1) (JNK1): confirmed

B4: mouse MKK7: novel MAPK kinase derived from mouse brain, amino acid sequence SEQ ID NO: 4 (protein)
chain: MAASSLEQKLSRLEAKLKQENREARRRIDLNLDISPQRPRPIIVITLSPAPAPSQRAALQLPLANDGGSRSPSSESSPQHPTPPTRPRHMLGLPSTLFTPRSMESIEIDQKLQEIMKQTGYLTIGGQRYQAEINDLENLGEMGSGTCGQVWKMRFRKTGHIIAVKQMRRSGNKEENKRILMDLDVVLKSHDCPYIVQCFGTFITNTDVFIAMELMGTCAEKLKKRMQGPIPERILGKMTVAIVKALYYLKEKHGVIHRDVKPSNILLDERGQIKLCDFGISGRLVDSKAKTRSAGCAAYMAPERIDPPDPTKPDYDIRADVWSLGISLVELATGQFPYKNCKTDFEVLTKVLQEEPPLLPGHMGFSGDFQSFVKDCLTKDHRKRPKYNKLLEHSFIKHYEILEVDVASWFKDVMAKTESPRTSGVLSQHHLPFFSGSLEESPTSPPSPKSFPLSPAIPQAQAEWVSGR
optimum pH [1]: 7 to 8 pH
temperature at which MKK7 is deactivated [1]: ≥ 70 °C
activation of SAPK (phosphorylation of c-Jun) (SAPK): specifically activated
activation of SAPK3 (phosphorylation of MBP) (SAPK3): did not activate
activation of p38 (phosphorylation of ATF-2) (p38): did not activate

B5: MKK7KL: dominant negative form of mouse MKK7, 165th Lysine (K) substituted with leucine (L), SEQ ID NO: 10 (protein)
chain: B4 chain with K165L
TNF-α-induced activation of SAPK/JNK in a cell expressing MKK7KL (SAPK/JNK): suppressed
